# B1: Domain 1 (D1) of Peptostreptococcus magnus Protein L (protein)
# chain: AQVSEEEVTIKANLIFANGSTQTAEFKGTFEKATSEAYAYADTLKKDNGEYTVDVADKGYTLNIKFAGKEKTPEEC
# B2: Domain 3 (D3) of Peptostreptococcus magnus Protein L (protein)
# chain: AQVPKEEVTIKANLIYADGKTQTAEFKGTFEEATAEAYRYADLLAKENGKYTVDVADKGYTLNIKFAGKEKTPEEC
# B3: Protein L (four kappa light chain-binding domains, with additional AIHNRA sequence at the N-terminus) (protein)
# chain: AIHNRAKEETPETPETDSEEEVTIKANLIFANGSTQTAEFKGTFEKATSEAYAYADTLKKDNGEYTVDVADKGYTLNIKFAGKEKTPEEPKEEVTIKANLIYADGKTQTAEFKGTFEEATAEAYRYADALKKDNGEYTVDVADKGYTLNIKFAGKEKTPEEPKEEVTIKANLIYADGKTQTAEFKGTFEEATAEAYRYADLLAKENGKYTVDVADKGYTLNIKFAGKEKTPEEPKEEVTIKANLIYADGKTQTAEFKGTFAEATAEAYRYADLLAKENGKYTADLEDGGYTINIRFAGKKVDEKPEE
# B4: Domain 2 (D2) of Protein L, variant with alanine in position 31 (protein)
# chain: AQVPKEEVTIKANLIYADGKTQTAEFKGTFEEAAAEAYRYADALKKDNGEYTVDVADKGYTLNIKFAGKEKTPEEC
# B5: D3(N10Q, N45A, N60Q)2 (designed binder)
# chain: PKEEVTIKAQLIYADGKTQTAEFKGTFEEATAEAYRYADLLAKEAGKYTVDVADKGYTLQIKFAGKEKTPEEPKEEVTIKAQLIYADGKTQTAEFKGTFEEATAEAYRYADLLAKEAGKYTVDVADKGYTLQIKFAGKEKTPEE
# B6: D3(N10Q, N45A, N60Q)4 (designed binder)
# chain: PKEEVTIKAQLIYADGKTQTAEFKGTFEEATAEAYRYADLLAKEAGKYTVDVADKGYTLQIKFAGKEKTPEEPKEEVTIKAQLIYADGKTQTAEFKGTFEEATAEAYRYADLLAKEAGKYTVDVADKGYTLQIKFAGKEKTPEEPKEEVTIKAQLIYADGKTQTAEFKGTFEEATAEAYRYADLLAKEAGKYTVDVADKGYTLQIKFAGKEKTPEEPKEEVTIKAQLIYADGKTQTAEFKGTFEEATAEAYRYADLLAKEAGKYTVDVADKGYTLQIKFAGKEKTPEE
# B7: D3(N10Q, N45A, N60Q)6 (designed binder)
# chain: PKEEVTIKAQLIYADGKTQTAEFKGTFEEATAEAYRYADLLAKEAGKYTVDVADKGYTLQIKFAGKEKTPEEPKEEVTIKAQLIYADGKTQTAEFKGTFEEATAEAYRYADLLAKEAGKYTVDVADKGYTLQIKFAGKEKTPEEPKEEVTIKAQLIYADGKTQTAEFKGTFEEATAEAYRYADLLAKEAGKYTVDVADKGYTLQIKFAGKEKTPEEPKEEVTIKAQLIYADGKTQTAEFKGTFEEATAEAYRYADLLAKEAGKYTVDVADKGYTLQIKFAGKEKTPEEPKEEVTIKAQLIYADGKTQTAEFKGTFEEATAEAYRYADLLAKEAGKYTVDVADKGYTLQIKFAGKEKTPEEPKEEVTIKAQLIYADGKTQTAEFKGTFEEATAEAYRYADLLAKEAGKYTVDVADKGYTLQIKFAGKEKTPEE
# B8: Domain 4 (D4) of Peptostreptococcus magnus Protein L (protein)
# chain: AQVPKEEVTIKANLIYADGKTQTAEFKGTFAEATAEAYRYADLLAKENGKYTADLEDGGYTINIRFAGKKVDEKPEEC
# Assays:
# [1] = molecular target: human polyclonal IgG (Gammanorm) (human); assay: SPR (Biacore), ligand amine-coupled to chip, 1 mg/ml human polyclonal IgG flowed; IgG binding signal left after 96 cycles of 10 min 100 mM NaOH
# [2] = molecular target: human polyclonal IgG (Gammanorm) (human); assay: SPR (Biacore), retained IgG binding capacity after 96 NaOH cycles, ratio to reference Domain 3
# [3] = molecular target: human polyclonal IgG (Gammanorm) (human); assay: SPR (Biacore), retained IgG binding capacity after 96 NaOH cycles, ratio to reference Domain 3 (itself, second run)
# [4] = molecular target: human polyclonal IgG (Gammanorm) (human); assay: SPR (Biacore), ligand amine-coupled to chip, 1 mg/ml human polyclonal IgG flowed; IgG binding signal left after 96 cycles of 10 min 100 mM NaOH (second run, reference for the Q19 mutants)
# [5] = molecular target: human polyclonal IgG (Gammanorm) (human); assay: SPR (Biacore), retained IgG binding capacity after 96 NaOH cycles, ratio to reference Domain 3 (itself)
# [6] = molecular target: human polyclonal IgG (Gammanorm) (human); assay: SPR (Biacore), retained IgG binding capacity after 96 NaOH cycles, ratio to reference Protein L (itself)
# [7] = molecular target: human polyclonal IgG (Gammanorm) (human); assay: SPR (Biacore), retained IgG binding capacity after 100 NaOH cycles, ratio to reference Protein L (itself)
# [8] = molecular target: human polyclonal IgG (Gammanorm) (human); assay: SPR (Biacore), ligand amine-coupled to chip, 1 mg/ml human polyclonal IgG flowed; IgG binding signal left after 100 cycles of 10 min 100 mM NaOH
# [9] = molecular target: Purified Fab prepared from a papain-digested IgG mAb; assay: dynamic binding capacity at 10% breakthrough, ligand multipoint-coupled to agarose beads (9.5 mg/ml), 1 mg/ml Fab, residence time 4 min
# [10] = molecular target: Purified Dab prepared from heat-treated E. coli supernatant; assay: dynamic binding capacity at 10% breakthrough, ligand multipoint-coupled to agarose beads (9.5 mg/ml), 1 mg/ml Dab, residence time 4 min
# [11] = molecular target: Purified Dab prepared from heat-treated E. coli supernatant; assay: dynamic binding capacity at 10% breakthrough, ligand multipoint-coupled to agarose beads (8.8 mg/ml), 1 mg/ml Dab, residence time 4 min
# [12] = molecular target: Purified Fab prepared from a papain-digested IgG mAb; assay: dynamic binding capacity at 10% breakthrough, ligand multipoint-coupled to agarose beads (8.8 mg/ml), 1 mg/ml Fab, residence time 4 min
# [13] = molecular target: Purified Dab prepared from heat-treated E. coli supernatant; assay: dynamic binding capacity at 10% breakthrough, ligand multipoint-coupled to agarose beads (11.0 mg/ml), 1 mg/ml Dab, residence time 4 min
# [14] = molecular target: Purified Fab prepared from a papain-digested IgG mAb; assay: dynamic binding capacity at 10% breakthrough, ligand multipoint-coupled to agarose beads (11.0 mg/ml), 1 mg/ml Fab, residence time 4 min
binder,measurement,setting,value
B1,Retained capacity after 96 cycles (%),[1],13%
same,Sample/ref. ratio,[2],0.42
B2,Sample/ref. ratio,[3],1
same,Retained capacity after 96 cycles (%),[1],31%
same,Retained capacity after 96 cycles (%),[4],28%
same,Sample/ref. ratio,[5],1
B3,Sample/ref. ratio,[6],1
same,Retained capacity after 96 cycles (%),[1],28%
same,Sample/ref. ratio,[7],1
same,Retained capacity after 100 cycles (%),[8],23%
B4,Retained capacity after 96 cycles (%),[1],22%
same,Sample/ref. ratio,[2],0.71
B5,QB10 Fab,[9],19.3 mg/mL
same,QB10 Dab,[10],15.4 mg/mL
B6,QB10 Dab,[11],15.9 mg/mL
same,QB10 Fab,[12],19.3 mg/mL
B7,QB10 Dab,[13],16.7 mg/mL
same,QB10 Fab,[14],21.1 mg/mL
B8,Retained capacity after 96 cycles (%),[1],26%
same,Sample/ref. ratio,[2],0.84
